Where two headings read alike, the source gives them in different places.
Experiments:
[1] = molecular target: T1, HCV ORFs (Gal4-DB fusions) (Hepatitis C virus genotype 1b, UniProt Q9WMX2); assay type: binding, HCV genotype 1b, isolate con1; settings: human protein as prey
T1 construct: expressed in transfected cells; host or cells: Saccharomyces cerevisiae MAV203 (IMAP1) / AH109 (IMAP2)

[2] = system: HCV ORFs (Gal4-DB fusions); assay type: binding, HCV genotype 1b, isolate con1; settings: human protein listed by gene symbol; the value names the HCV protein it interacts with
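Note: yeast two-hybrid screens using HCV genotype 1b proteins fused to Gal4-DB as baits against prey cDNA libraries from human spleen and foetal brain, IMAP1 via transformation and IMAP2 via mating.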

Molecule	IMAP Y2H IMAP2 (number of IST) ([1]; HCV protein NS5B as bait)	Interaction with viral protein [2]	IMAP Y2H IMAP2 (number of IST) ([1]; HCV protein NS5A as bait)
OS9 (protein, UniProt Q13438 26-667, looked up) Protein OS-9: GGVGSLNLEELSEMRYGIEILPLPVMGGQSQSSDVVIVSSKYKQRYECRLPAGAIHFQREREEETPAYQGPGIPELLSPMRDAPCLLKTKDWWTYEFCYGRHIQQYHMEDSEIKGEVLYLGYYQSAFDWDDETAKASKQHRLKRYHSQTYGNGSKCDLNGRPREAEVRFLCDEGAGISGDYIDRVDEPLSCSYVLTIRTPRLCPHPLLRPPPSAAPQAILCHPSLQPEEYMAYVQRQADSKQYGDKIIEELQDLGPQVWSETKSGVAPQKMAGASPTKDDSKDSDFWKMLNEPEDQAPGGEEVPAEEQDPSPEAADSASGAPNDFQNNVQVKVIRSPADLIRFIEELKGGTKKGKPNIGQEQPVDDAAEVPQREPEKERGDPERQREMEEEEDEDEDEDEDEDERQLLGEFEKELEGILLPSDRDRLRSEVKAGMERELENIIQETEKELDPDGLKKESERDRAMLALTSTLNKLIKRLEEKQSPELVKKHKKKRVVPKKPPPSPQPTEEDPEHRVRVRVTKLRLGGPNQDLTVLEMKRENPQLKQIEGLVKELLEREGLTAAGKIEIKIVRPWAEGTEEGARWLTDEDTRNLKEIFFNILVPGAEEAQKERQRQKELESNYRRVWGSPGGEGTGDLDEFDF	3	NS5A	–
CCDC100 (protein, UniProt Q8N960 1-986, looked up) Centrosomal protein of 120 kDa: MVSKSDQLLIVVSILEGRHFPKRPKHMLVVEAKFDGEQLATDPVDHTDQPEFATELAWEIDRKALHQHRLQRTPIKLQCFALDPVTSAKETIGYIVLDLRTAQETKQAPKWYQLLSNKYTKFKSEIQISIALETDTKPPVDSFKAKGAPPRDGKVPAILAGLDPRDIVAVLNEEGGYHQIGPAEYCTDSFIMSVTIAFATQLEQLIPCTMKLPERQPEFFFYYSLLGNDVTNEPFNDLINPNFEPERASVRIRSSVEILRVYLALQSKLQIHLCCGDQSLGSTEIPLTGLLKKGSTEINQHPVTVEGAFTLDPPNRAKQKLAPIPVELAPTVGVSVALQREGIDSQSLIELKTQNEHEPEHSKKKVLTPIKEKTLTGPKSPTVSPVPSHNQSPPTKDDATESEVESLQYDKDTKPNPKASSSVPASLAQLVTTSNASEVASGQKIAVPATSHHFCFSIDLRSIHALEIGFPINCILRYSYPFFGSAAPIMTNPPVEVRKNMEVFLPQSYCAFDFATMPHQLQDTFLRIPLLVELWHKDKMSKDLLLGIARIQLSNILSSEKTRFLGSNGEQCWRQTYSESVPVIAAQGSNNRIADLSYTVTLEDYGLVKMREIFISDSSQGVSAVQQKPSSLPPAPCPSEIQTEPRETLEYKAALELEMWKEMQEDIFENQLKQKELAHMQALAEEWKKRDRERESLVKKKVAEYTILEGKLQKTLIDLEKREQQLASVESELQREKKELQSERQRNLQELQDSIRRAKEDCIHQVELERLKIKQLEEDKHRLQQQLNDAENKYKILEKEFQQFKDQQNNKPEIRLQSEINLLTLEKVELERKLESATKSKLHYKQQWGRALKELARLKQREQESQMARLKKQQEELEQMRLRYLAAEEKDTVKTERQELLDIRNELNRLRQQEQKQYQDSTEIASGKKDGPHGSVLEEGLDDYLTRLIEERDTLMRTGVYNHEDRIISELDRQIREILAKSNASN	–	NS5A	1
IGLL1 (protein, UniProt P15814 38-213, looked up) Immunoglobulin lambda-like …: LLRPTAASQSRALGPGAPGGSSRSSLRSRWGRFLLQRGSWTGPRCWPRGFQSKHNSVTHVFGSGTQLTVLSQPKATPSVTLFPPSSEELQANKATLVCLMNDFYPGILTVTWKADGTPITQGVEMTTPSKQSNNKYAASSYLSLTPEQWRSRRSYSCQVMHEGSTVEKTVAPAECS	–	NS5A	1
LIMS2 (protein, UniProt Q7Z4I7 1-341, looked up) LIM and senescent cell …: MTGSNMSDALANAVCQRCQARFSPAERIVNSNGELYHEHCFVCAQCFRPFPEGLFYEFEGRKYCEHDFQMLFAPCCGSCGEFIIGRVIKAMNNNWHPGCFRCELCDVELADLGFVKNAGRHLCRPCHNREKAKGLGKYICQRCHLVIDEQPLMFRSDAYHPDHFNCTHCGKELTAEARELKGELYCLPCHDKMGVPICGACRRPIEGRVVNALGKQWHVEHFVCAKCEKPFLGHRHYEKKGLAYCETHYNQLFGDVCYNCSHVIEGDVVSALNKAWCVSCFSCSTCNSKLTLKNKFVEFDMKPVCKRCYEKFPLELKKRLKKLSELTSRKAQPKATDLNSA	–	NS5A	1
PMVK (protein, UniProt Q15126 1-192, looked up) Phosphomevalonate kinase: MAPLGGAPRLVLLFSGKRKSGKDFVTEALQSRLGADVCAVLRLSGPLKEQYAQEHGLNFQRLLDTSTYKEAFRKDMIRWGEEKRQADPGFFCRKIVEGISQPIWLVSDTRRVSDIQWFREAYGAVTQTVRVVALEQSRQQRGWVFTPGVDDAESECGLDNFGDFDWVIENHGVEQRLEEQLENLIEFIRSRL	–	NS5A	1
NFE2 (protein, UniProt Q16621 1-373, looked up) Transcription factor NF-E2 45 …: MSPCPPQQSRNRVIQLSTSELGEMELTWQEIMSITELQGLNAPSEPSFEPQAPAPYLGPPPPTTYCPCSIHPDSGFPLPPPPYELPASTSHVPDPPYSYGNMAIPVSKPLSLSGLLSEPLQDPLALLDIGLPAGPPKPQEDPESDSGLSLNYSDAESLELEGTEAGRRRSEYVEMYPVEYPYSLMPNSLAHSNYTLPAAETPLALEPSSGPVRAKPTARGEAGSRDERRALAMKIPFPTDKIVNLPVDDFNELLARYPLTESQLALVRDIRRRGKNKVAAQNCRKRKLETIVQLERELERLTNERERLLRARGEADRTLEVMRQQLTELYRDIFQHLRDESGNSYSPEEYALQQAADGTIFLVPRGTKMEATD	–	NS5A	1
PARVG (protein, UniProt Q9HBI0 1-331, looked up) Gamma-parvin: MEPEFLYDLLQLPKGVEPPAEEELSKGGKKKYLPPTSRKDPKFEELQKVLMEWINATLLPEHIVVRSLEEDMFDGLILHHLFQRLAALKLEAEDIALTATSQKHKLTVVLEAVNRSLQLEEWQAKWSVESIFNKDLLSTLHLLVALAKRFQPDLSLPTNVQVEVITIESTKSGLKSEKLVEQLTEYSTDKDEPPKDVFDELFKLAPEKVNAVKEAIVNFVNQKLDRLGLSVQNLDTQFADGVILLLLIGQLEGFFLHLKEFYLTPNSPAEMLHNVTLALELLKDEGLLSCPVSPEDIVNKDAKSTLRVLYGLFCKHTQKAHRDRTPHGAPN	–	NS5A	1
